Measured values: US20130130988A1
Where “and” joins values, the source holds several entries; their conditions need not be identical. Identical values can stand only once.

How the values were obtained:
TLR-6 = assay: microplate binding assay, complex adsorbed in wells, biotin-streptavidin visualisation
galectin-1 = assay: as above; conditions: scale: µg of macromolecular complex per 10 ng of galectin-1

concentration at saturation (µg of macromolecule per 10 ng of TLR6) (TLR-6)	concentration at saturation (galectin-1)	Substance
10 and 20	20 and 10	macromolecular complex of Bifidobacterium longum CBi0703 (CNCM I-3994), prepared according to example 1 (fermentation with pH regulated)
10 and 20	10 and 20	macromolecular complex of Bifidobacterium longum CBi0703 (CNCM I-3994), prepared according to example 2 (fermentation with pH not regulated)
